The RNAGym collection of RNA variant scans (doi:10.7554/elife.90254)

B1: OR4K15 (parent)
chain: GUUAACGGUCAUAGGCCAUGGAAACUAGGAGCACCAUUUCGCUGCCAGUGAAGAAAUGAACAAAGAAAAUCUGGGCCAGGCAGGCAUCAAAAGAAAUAGUCUUGCGCUCAACCAGAAAGUCUGUAAUCAUUUUAAGGGUA

Variants of: B1
Test: self-cleavage, relative activity (ratio to wild type); higher = more cleavage; in vitro, sequencing; the parent is a self-cleaving ribozyme

Row | Variant | self-cleavage
1 | A63G C101A | 0.32
2 | A60U U70C | 1.72
3 | A59U U108C | 0.02
4 | A62G A117G | 1.43
5 | A63G U103G | 0.01
6 | A60U A86G | 0.74
7 | A62U U108A | 0.02
8 | A62U A110U | 1.27
9 | A59U A114C | 0.03
10 | C61U G106U | 0.04
11 | A60G A69G | 0.19
12 | A62G U131C | 1.29
13 | A63G A116U | 0.57
14 | A63G A116C | 0.13
15 | A62U A111G | 0.02
16 | A62C A86G | 1.15
17 | A62U G73U | 0.17
18 | A60G A90C | 0.79
19 | C61G A110G | 0.41
20 | A63C G79A | 0.09
21 | A63U U103C | 1.58

Row | Variant | self-cleavage
22 | A60C G65A | 0.54
23 | A62U G74A | 0.41
24 | A62U A78U | 0.33
25 | A62U A78G | 0.28
26 | A62G U87C | 0.88
27 | A62G U87A | 1.71
28 | A59U A90C | 1.63
29 | A60G U70A | 1.3
30 | A62G C85U | 0.63
31 | A62G U120A | 1.1
32 | A62G A94G | 1.52
33 | A62G C128U | 1.13
34 | A59U G79A | 0.14
35 | A59U A134G | 1.02
36 | A60G G123A | 1.05
37 | A60G C112U | 0.02
38 | A59U G137U | 2.15
39 | A59U G137A | 2.05
40 | C61U A117G | 1.54
41 | A63C G83U | 0.83
42 | A60G A94U | 2.32

Row | Variant | self-cleavage
43 | A60G A98U | 2.21
44 | A62C G83A | 2.18
45 | A63U A118G | 1.71
46 | A60G A140G | 1.21
47 | A62U A91G | 0.94
48 | A62G A140G | 1.36
49 | A60U G136A | 1.51
50 | A60G U130C | 1.07
51 | A60G U130G | 1.18
52 | A63U A134G | 0.32
53 | A60G C128G | 0.87
54 | C61U U133C | 1.21
55 | A60U A98G | 0.39
56 | A60G A64U | 1.46
57 | A59U U131C | 1.25
58 | A62G A64G | 0.94
59 | A60U A96G | 1.78
60 | A62G A96G | 1.53
61 | A59U A94G | 1.02
62 | C61U A78U | 0.43
63 | A63G U131C | 1.2

Row | Variant | self-cleavage
64 | A63G U131A | 0.45
65 | A63U A140U | 1.52
66 | A62U A95G | 2.47
67 | A63G A118C | 1.42
68 | A63U A86G | 2.75
69 | A63G U97C | 2.55
70 | A63G A134G | 1.47
71 | A63G A110G | 0.15
72 | A63G A110C | 0.38
73 | A63G A110U | 1.88
74 | A62G A129U | 0.89
75 | A62G A129G | 1.09
76 | A60U A116G | 1.37
77 | A63G U72C | 0.27
78 | A63G U72A | 0.33
79 | A62G U72G | 0.22
80 | A62G U72A | 0.18
81 | A63U A94U | 1.96
82 | A63G A111U | 0.18
83 | A60U A69G | 1.51
84 | A60U A67G | 2.09
